Results from US20150160235A1 (Takeda / Millennium, published 2015).

Biological target: T1, oxMIF (oxidized macrophage migration inhibitory factor) in human tissue cryosections (human, UniProt P14174 2-115)
T1 construct: mature; Native oxMIF isoform in unfixed, air-dried cryosections of patient tissue (kidney, pancreas, breast, brain, lung, colon); also called oxidized MIF
Test: IHC, biotinylated RAM9 5 µg/ml on unfixed kidney cryosections, streptavidin-HRP/DAB
Experimental: The kidney tissue slides were prepared according to state of the art techniques known to experts, either fresh frozen or OCT embedded, sectioned at 10 μm and stored at <=−80° C. after sectioning. All following steps were done at ambient temperature. The cryo-sections were air dried for 30 min and unspecific binding was blocked with blocking buffer (20% Normal Goat Serum/2% Bovine Serum Albumin/0.2% Fish Gelatine in TBS) for 30 min. The sections were then incubated with a primary, preferably biotinylated, anti-oxMIF Antibody (biotinylated-RAM9) in primary antibody dilution buffer (2% Bovine Serum Albumin/0.2% Fish Gelatine in TBS) at a concentration of 5 μg/ml for 60 min. After washing in TBS, the specimen was fixed in 4% PBS buffered formaldehyde for 15-20 min. Excess formaldehyde was removed by washing in TBS for 10 min. The staining was done using VECTASTAIN Elite ABC Reagent (HRP conjugated Streptavidin) for 30 min. Then the sections were extensively washed again 10 min in TBS. By using ImmPACT DAB Substrate for 10 minutes the staining was visualized as a brown color, which is reflected in FIG. 1A by a dark grey. The slides were washed in TBS and the nuclei were counterstained with Haematoxylin for 1-2 min. By washing the slides in tap water the color of the counter stain changes from violet to blue. […]

T1 sequence (P14174 2-115): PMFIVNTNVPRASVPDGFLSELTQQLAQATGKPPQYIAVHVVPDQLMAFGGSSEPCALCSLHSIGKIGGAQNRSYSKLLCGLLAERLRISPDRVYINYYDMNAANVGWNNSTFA

B1: anti-oxMIF antibody RAM9 (antibody, V domains shown)
VH: EVQLLESGGGLVQPGGSLRLSCAASGFTFSIYSMNWVRQAPGKGLEWVSSIGSSGGTTYYADSVKGRFTISRDNSKNTLYLQMNSLRAEDTAVYYCAGSQWLYGMDVWGQGTTVTVSS
VL: DIQMTQSPSSLSASVGDRVTITCRSSQRIMTYLNWYQQKPGKAPKLLIFVASHSQSGVPSRFRGSGSETDFTLTISGLQPEDSATYYCQQSFWTPLTFGGGTKVEIKR
notes: also called biotinylated-RAM9
- binding result: binds
